Broadly, the Kd is the equilibrium constant for the complex coming apart.

The chains are these.
B1: OX40-CRD-Avi-his (receptor)
chain: LHCVGDTYPSNDRCCHECRPGNGMVSRCSRSQNTVCRPCGPGFYNDVVSSKPCKPCTWCNLRSGSERKQLCTATQDTVCRCRAGTQPLDSYKPGVDCAPCPPGHFSPGDNQACKPWTNCTLAGKHTLQPASNSSDAICEDRDGLNDIFEAQKIEWHEHHHHHH
notes: limits of the construct not described

Assay [1] concerns the target pab1949 scFv fused in C-terminus (Fc fragment after digestion). As to the kind of experiment: SPR, Fc-scFv fragment captured by anti-human IgG Fc, OX40-CRD-Avi-his injected. As for the experimental part: The antibody/protease mixture was incubated over night at 37° C. […] After each binding event, the surface was regenerated with 10 μl of MgCl2 (3M) buffer. Experimental data were processed using a 1:1 Langmuir model with local Rmax. The dissociation time was about 7 min.
(§1) Dilution series of hsOX40_CRD_Avi_His (SEQ ID NO: 159) were then injected.
On the technique in general: In SPR one partner is held on a chip, and binding of the other changes the refractive index at the surface.

The target of assay [2] is T1, recombinant human OX40-his protein (human, UniProt P43489 29-214).
T1 construct: Secreted via the native signal peptide, which lies within residues 1-214; also called Human OX40R-His; histidine tagged human OX40 receptor extracellular domain
T1 sequence: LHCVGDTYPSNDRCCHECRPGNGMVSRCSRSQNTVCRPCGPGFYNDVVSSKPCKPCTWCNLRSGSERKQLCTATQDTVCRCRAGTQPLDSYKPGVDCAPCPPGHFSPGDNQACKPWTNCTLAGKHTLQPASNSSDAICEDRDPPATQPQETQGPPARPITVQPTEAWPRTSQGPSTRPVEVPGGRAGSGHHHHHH
As to the kind of experiment: direct ELISA on coated OX40-his. As for the experimental part: Plates were incubated overnight at 4° C. and were then blocked with PBS 2% BSA (Bovine Serum Albumine, PAA Laboratories, Pasching, Austria) at room temperature (RT) for one hour. […] Absorbance was then read at 450 nm by a microplate reader (Biotek, USA; distributor: WITTEC AG, Littau, Switzerland).
(In general: ELISA stands for enzyme-linked immunosorbent assay.)

A further assay has as its target rat OX40-Fc (rat). As to the kind of experiment: ELISA on coated rat OX40-Fc.
The next assay has as its target T2, human OX40 on cells (human, UniProt P43489 29-277).
T2 sequence (looked up): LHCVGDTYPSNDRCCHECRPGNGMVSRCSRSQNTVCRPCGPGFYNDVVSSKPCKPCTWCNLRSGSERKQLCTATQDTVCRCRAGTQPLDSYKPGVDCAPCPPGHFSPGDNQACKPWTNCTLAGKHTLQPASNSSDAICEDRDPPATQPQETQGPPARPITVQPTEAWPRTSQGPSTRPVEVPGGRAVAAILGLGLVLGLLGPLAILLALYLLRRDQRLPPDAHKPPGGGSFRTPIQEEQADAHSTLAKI
In words: cell-based or functional assay.

In the assay “OX40-CRD-Avi-his” the target is B1. In words: SPR, antibody captured by anti-human IgG Fc, hsOX40_CRD_Avi_His injected. As for the experimental part:
as §1

Another assay addresses T3, chiOX40R HHRH-Fc (human/rat chimera; human).
T3 construct: also called chiOX40R-Fc HHRH; chiOX40R OX40 HHRH-Fc
In words: SPR, chimera immobilised (3000 RU), fragment injected at 200 nM. As for the experimental part:
A second injection was then performed using HBS-EP buffer for 3 min followed by 5 min of dissociation. Regeneration between the injections was done using glycine pH1.5 buffer for 1 min (FIG. 21 and table 23).

T3 sequence (chain, as listed by the source): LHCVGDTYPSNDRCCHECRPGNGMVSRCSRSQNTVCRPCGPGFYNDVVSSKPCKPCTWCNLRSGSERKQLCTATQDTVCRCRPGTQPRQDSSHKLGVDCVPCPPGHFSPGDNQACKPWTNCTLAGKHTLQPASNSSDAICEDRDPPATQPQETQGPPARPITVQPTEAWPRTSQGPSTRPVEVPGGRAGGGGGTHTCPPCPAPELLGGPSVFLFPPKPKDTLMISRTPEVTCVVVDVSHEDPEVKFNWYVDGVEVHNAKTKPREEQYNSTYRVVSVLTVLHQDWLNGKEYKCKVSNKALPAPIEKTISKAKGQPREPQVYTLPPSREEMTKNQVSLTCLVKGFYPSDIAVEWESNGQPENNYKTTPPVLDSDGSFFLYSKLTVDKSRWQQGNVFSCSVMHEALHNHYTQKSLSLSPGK
Chain of rat OX40-Fc (rat) (chain, as listed by the source limits assumed): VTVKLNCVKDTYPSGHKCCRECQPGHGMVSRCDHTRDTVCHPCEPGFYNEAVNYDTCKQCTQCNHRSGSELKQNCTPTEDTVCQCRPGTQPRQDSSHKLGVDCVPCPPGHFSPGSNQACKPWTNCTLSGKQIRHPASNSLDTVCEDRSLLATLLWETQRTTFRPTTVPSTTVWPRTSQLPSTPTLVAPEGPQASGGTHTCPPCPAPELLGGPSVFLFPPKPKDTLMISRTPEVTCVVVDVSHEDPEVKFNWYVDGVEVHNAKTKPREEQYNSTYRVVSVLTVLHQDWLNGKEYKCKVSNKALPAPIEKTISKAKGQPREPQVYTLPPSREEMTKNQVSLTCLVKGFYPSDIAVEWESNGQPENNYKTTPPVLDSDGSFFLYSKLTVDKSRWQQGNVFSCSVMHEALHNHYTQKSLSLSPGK

As to B1, in assay [1], the affinity, expressed as Kd, was 460 nM.

B2: mouse 2H6 antibody (hybridoma 2H6) (antibody, V domains shown)
VH: DVQLQESGPGLVKPSQSLSLTCTVTGYSITSDYAWNWIRQFPGNKLEWMGYISYSGSTAYNPSLKSRISITRDTSKNQFFLQLNSVTTEDTATYYCARGPYNYLAYWGQGTLVTVSS
VL: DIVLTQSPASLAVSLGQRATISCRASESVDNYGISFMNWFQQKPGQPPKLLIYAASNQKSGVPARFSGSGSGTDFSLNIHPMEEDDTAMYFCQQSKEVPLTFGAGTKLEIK
notes: also called mouse antibody 2H6
As for B2, the binding result in assay [2] is given as “binds”.

B3: pab1949 IgG1 (antibody, V domains shown)
VH: EVQLVESGGGLVQPGGSLKLSCAASGFTFSGSAMHWVRQASGKCLEWVGRIRSKANSYATAYAASVKGRFTISRDDSKNTAYLQMNSLKTEDTAVYYCTSGIYDSSGYDYWGQGTLVTVSS
VL: not shown
With B3, the binding result with rat OX40-Fc was “no binding (tested: 10 µg/ml)”. Besides, in the assay with human OX40 on cells, the “% donor responder (>2), SEB assay, IL-2 release” value came out at 80% and the “Mean, normalized IL-2 release, SEB assay” value amounted to 4.74. The Kd with OX40-CRD-Avi-his turned out to be 304 nM.

B4: Fc-7H11 scFv/2H6 Fab (other)
heavy 1: HTCPPCPAPEAAGGPSVFLFPPKPKDTLMISRTPEVTCVVVDVSHEDPEVQFKWYVDGVEVHNAKTKPREEQYNSTFRVVSVLTVLHQDWLNGKEYKCKVSNKALPAPIEKTISKTKGQPREPAVYTLPPSREEMTKNQVKLVCLVTGFYPSDIAVEWESSGQPENNYYTTPPMLDSDGSFSLVSWLNVDKSRWQQGNIFSCSVMHEALHNRFTQKSLSLSPGGGGGTQVQLVQSGAEVKKPGASVKVSCKASGYTFTRYYMHWVRQAPGQCLEWMGWIYPGEGSTKYAQKFQGRVTMTRDTSISTAYMELSRLRSDDTAVYYCAREYGNYDYWGQGTLVTVSSGGGGSGGGGSGGGGSDIVMTQSPDSLAVSLGERATINCKSSQSLLNSGNQKNYLAWYQQKPGQPPKLLIYGASTRESGVPDRFSGSGSGTDFTLTISSLQAEDVAVYYCQNDHSYPYTFGCGTKLEIL
heavy 2: HTCPPCPAPEAAGGPSVFLFPPKPKDTLMISRTPEVTCVVVDVSHEDPEVKFNWYVDGVEVHNAKTKPREEQYNSTYRVVSVLTVLHQDWLNGKEYKCKVSNKALPAPIEKTISKAKGQPREPEVATFPPSRDELTKNQVTLVCLVTGFYPSDIAVEWESNGQPENNYKTDPPLLESDGSFALSSRLRVDKSRWQQGNVFSCSVMHEALHNHYTQKSLSLSPGGGGGTEVQLVESGGGLVQPGGSLRLSCAVSGYSITSDYAWNWIRQAPGKGLEWMGYISYSGSTAYNPSLKSRITISRDTSKNTFYLQMNSLRAEDTAVYYCARGPYNYLAYWGQGTLVTVSSASTKGPSVFPLAPSSKSTSGGTAALGCLVKDYFPEPVTVSWNSGALTSGVHTFPAVLQSSGLYSLSSVVTVPSSSLGTQTYICNVNHKPSNTKVDKKVEPKSC
light: DIQLTQSPSSLSASVGDRVTITCRASESVDNYGISFMNWFQQKPGKAPKLLIYAASNQKSGVPSRFSGSGSGTDFTLTISSLQPEDFATYFCQQSKEVPLTFGQGTKVEIKRTVAAPSVFIFPPSDEQLKSGTASVVCLLNNFYPREAKVQWKVDNALQSGNSQESVTEQDSKDSTYSLSSTLTLSKADYEKHKVYACEVTHQGLSSPVTKSFNRGEC
notes: N-terminal Fabs removed by digestion; also called Fc-2H6 Fab/7H11 scFv; purified digestion product of Tetra-20
In the case of B4, the response units with chiOX40R HHRH-Fc amounted to 100 RU.

For the origin of these results see patent publication US20200347143A1 (GLENMARK PHARMACEUTICALS S A, published 2020).
